Key:
[1] = molecular target: Chorionic Gonadotropin (CG) (UniProt P01215); test: FRET quenching titration, BHQ-10 antibody and Alexa Fluor 488 antigen
[2] = molecular target: Follicle Stimulating Hormone (FSH) (UniProt P01215); test: as above
[3] = molecular target: Luteinizing Hormone (LH) (UniProt P01215); test: as above
[4] = molecular target: Thyroid Stimulating Hormone (TSH) (UniProt P01215); test: as above
[5] = molecular target: Thyroid Stimulating Hormone (TSH) (UniProt P01215); test: FRET competition on Alexa488-labelled antigen; competitor BHQ-labelled M4
[6] = molecular target: Thyroid Stimulating Hormone (TSH) (UniProt P01215); test: FRET competition on Alexa488-labelled antigen; competitor BHQ-labelled 414B
[7] = molecular target: Thyroid Stimulating Hormone (TSH) (UniProt P01215); test: FRET competition on Alexa488-labelled antigen; competitor BHQ-labelled 5409
[8] = molecular target: Thyroid Stimulating Hormone (TSH) (UniProt P01215); test: FRET competition on Alexa488-labelled antigen; competitor BHQ-labelled T25C
[9] = molecular target: Thyroid Stimulating Hormone (TSH) (UniProt P01215); test: FRET competition on Alexa488-labelled antigen; competitor BHQ-labelled ME130
[10] = molecular target: Thyroid Stimulating Hormone (TSH) (UniProt P01215); test: i-STAT sandwich cartridge with TSH; capture beads 414B, detection conjugate M4
[11] = molecular target: Thyroid Stimulating Hormone (TSH) (UniProt P01215); test: i-STAT sandwich cartridge with TSH; capture beads 414B, detection conjugate 5409
[12] = molecular target: Thyroid Stimulating Hormone (TSH) (UniProt P01215); test: FRET competition on Alexa488-labelled antigen; competitor BHQ-labelled TSH Ab 544
[13] = molecular target: Thyroid Stimulating Hormone (TSH) (UniProt P01215); test: i-STAT sandwich cartridge with TSH; capture beads 414B, detection conjugate TSH Ab 544
[14] = molecular target: Chorionic Gonadotropin (CG) (UniProt P01215); test: i-STAT sandwich cartridge, 0.4 mIU/L TSH plus CG, signal gain over TSH alone; capture 414B, detection 5409
[15] = molecular target: Luteinizing Hormone (LH) (UniProt P01215); test: i-STAT sandwich cartridge, 0.4 mIU/L TSH plus LH, signal gain over TSH alone; capture 414B, detection 5409
[16] = molecular target: Follicle Stimulating Hormone (FSH) (UniProt P01215); test: i-STAT sandwich cartridge, 0.4 mIU/L TSH plus FSH, signal gain over TSH alone; capture 414B, detection 5409
[17] = molecular target: Chorionic Gonadotropin (CG) (UniProt P01215); test: i-STAT sandwich cartridge, 0.4 mIU/L TSH plus CG, signal gain over TSH alone; capture 414B, detection TSH Ab 544
[18] = molecular target: Luteinizing Hormone (LH) (UniProt P01215); test: i-STAT sandwich cartridge, 0.4 mIU/L TSH plus LH, signal gain over TSH alone; capture 414B, detection TSH Ab 544
[19] = molecular target: Follicle Stimulating Hormone (FSH) (UniProt P01215); test: i-STAT sandwich cartridge, 0.4 mIU/L TSH plus FSH, signal gain over TSH alone; capture 414B, detection TSH Ab 544
[20] = molecular target: Thyroid Stimulating Hormone (TSH) (UniProt P01215); test: i-STAT sandwich cartridge with TSH; capture beads T25C, detection conjugate M4
[21] = molecular target: Thyroid Stimulating Hormone (TSH) (UniProt P01215); test: i-STAT sandwich cartridge with TSH; capture beads T25C, detection conjugate 414B
[22] = molecular target: Thyroid Stimulating Hormone (TSH) (UniProt P01215); test: i-STAT sandwich cartridge with TSH; capture beads T25C, detection conjugate 5409
[23] = molecular target: Thyroid Stimulating Hormone (TSH) (UniProt P01215); test: i-STAT sandwich cartridge with TSH; capture beads T25C, detection conjugate ME130
[24] = molecular target: Thyroid Stimulating Hormone (TSH) (UniProt P01215); test: i-STAT sandwich cartridge with TSH; capture beads T25C, detection conjugate TSH Ab 544
[25] = molecular target: Chorionic Gonadotropin (CG) (UniProt P01215); test: i-STAT sandwich cartridge, 0.4 mIU/L TSH plus CG, signal gain over TSH alone; capture T25C, detection 5409
[26] = molecular target: Luteinizing Hormone (LH) (UniProt P01215); test: i-STAT sandwich cartridge, 0.4 mIU/L TSH plus LH, signal gain over TSH alone; capture T25C, detection 5409
[27] = molecular target: Follicle Stimulating Hormone (FSH) (UniProt P01215); test: i-STAT sandwich cartridge, 0.4 mIU/L TSH plus FSH, signal gain over TSH alone; capture T25C, detection 5409
[28] = molecular target: Thyroid Stimulating Hormone (TSH) (UniProt P01215); test: i-STAT sandwich cartridge with TSH; capture beads 5409, detection conjugate M4
[29] = molecular target: Thyroid Stimulating Hormone (TSH) (UniProt P01215); test: i-STAT sandwich cartridge with TSH; capture beads 5409, detection conjugate T25C
[30] = molecular target: Thyroid Stimulating Hormone (TSH) (UniProt P01215); test: i-STAT sandwich cartridge with TSH; capture beads 5409, detection conjugate ME130
[31] = molecular target: Thyroid Stimulating Hormone (TSH) (UniProt P01215); test: i-STAT sandwich cartridge with TSH; capture beads 5409, detection conjugate TSH Ab 544
[32] = molecular target: Chorionic Gonadotropin (CG) (UniProt P01215); test: i-STAT sandwich cartridge, 0.4 mIU/L TSH plus CG, signal gain over TSH alone; capture 5409, detection T25C
[33] = molecular target: Luteinizing Hormone (LH) (UniProt P01215); test: i-STAT sandwich cartridge, 0.4 mIU/L TSH plus LH, signal gain over TSH alone; capture 5409, detection T25C
[34] = molecular target: Chorionic Gonadotropin (CG) (UniProt P01215); test: i-STAT sandwich cartridge, 0.4 mIU/L TSH plus CG, signal gain over TSH alone; capture 5409, detection ME130
[35] = molecular target: Follicle Stimulating Hormone (FSH) (UniProt P01215); test: i-STAT sandwich cartridge, 0.4 mIU/L TSH plus FSH, signal gain over TSH alone; capture 5409, detection T25C
[36] = molecular target: Luteinizing Hormone (LH) (UniProt P01215); test: i-STAT sandwich cartridge, 0.4 mIU/L TSH plus LH, signal gain over TSH alone; capture 5409, detection ME130
[37] = molecular target: Follicle Stimulating Hormone (FSH) (UniProt P01215); test: i-STAT sandwich cartridge, 0.4 mIU/L TSH plus FSH, signal gain over TSH alone; capture 5409, detection ME130
[38] = molecular target: Thyroid Stimulating Hormone (TSH) (UniProt P01215); test: i-STAT sandwich cartridge with TSH; capture beads ME130, detection conjugate M4
[39] = molecular target: Thyroid Stimulating Hormone (TSH) (UniProt P01215); test: i-STAT sandwich cartridge with TSH; capture beads ME130, detection conjugate 5409
[40] = molecular target: Thyroid Stimulating Hormone (TSH) (UniProt P01215); test: i-STAT sandwich cartridge with TSH; capture beads ME130, detection conjugate T25C
[41] = molecular target: Thyroid Stimulating Hormone (TSH) (UniProt P01215); test: i-STAT sandwich cartridge with TSH; capture beads ME130, detection conjugate TSH Ab 544
[42] = molecular target: Chorionic Gonadotropin (CG) (UniProt P01215); test: i-STAT sandwich cartridge, 0.4 mIU/L TSH plus CG, signal gain over TSH alone; capture ME130, detection 5409
[43] = molecular target: Luteinizing Hormone (LH) (UniProt P01215); test: i-STAT sandwich cartridge, 0.4 mIU/L TSH plus LH, signal gain over TSH alone; capture ME130, detection 5409
[44] = molecular target: Follicle Stimulating Hormone (FSH) (UniProt P01215); test: i-STAT sandwich cartridge, 0.4 mIU/L TSH plus FSH, signal gain over TSH alone; capture ME130, detection 5409
[45] = molecular target: Thyroid Stimulating Hormone (TSH) (UniProt P01215); test: i-STAT sandwich cartridge with TSH; capture beads M4, detection conjugate 5409
[46] = molecular target: Thyroid Stimulating Hormone (TSH) (UniProt P01215); test: i-STAT sandwich cartridge with TSH; capture beads M4, detection conjugate T25C
[47] = molecular target: Thyroid Stimulating Hormone (TSH) (UniProt P01215); test: i-STAT sandwich cartridge with TSH; capture beads M4, detection conjugate ME130
[48] = molecular target: Thyroid Stimulating Hormone (TSH) (UniProt P01215); test: i-STAT sandwich cartridge with TSH; capture beads M4, detection conjugate TSH Ab 544

Substance	Kd [1] [nM]	Kd [2] [nM]	Kd [3] [nM]	Kd [4] [nM]	relative fluorescence [5] [normalized]	relative fluorescence [6] [normalized]	relative fluorescence [7] [normalized]	relative fluorescence [8] [normalized]	relative fluorescence [9] [normalized]	relative fluorescence [12] [normalized]	further results
Seradyn anti-alpha-LH monoclonal antibody Cat#MIT0414B	0.05	0.1	0.05	0.04	0.75	1	0.81	0.76	0.86	0.83	electrochemical current [10]: 41.3 nA; electrochemical current [11]: 40.3 nA; electrochemical current [13]: 10.2 nA; CG CR (%) [14]: 84.6%; LH CR (%) [15]: 348%; FSH CR (%) [16]: 260%; CG CR (%) [17]: 39.2%; LH CR (%) [18]: 467%; FSH CR (%) [19]: 219%
signaling mouse monoclonal antibody Fitzgerald Cat#10-T25C	40	300	35	0.08	0.92	0.97	0.95	1	0.97	0.97	electrochemical current [20]: 40.9 nA; electrochemical current [21]: 0.82 nA; electrochemical current [22]: 49.7 nA; electrochemical current [23]: 0.68 nA; electrochemical current [24]: 0.83 nA; CG CR (%) [25]: 13.7%; LH CR (%) [26]: 9.89%; FSH CR (%) [27]: 6.25%
TSH capture mouse monoclonal antibody Biospacific Cat#5409 SPTNE-5	500	1000	1000	0.1	0.9	0.88	1	0.78	0.78	0.93	electrochemical current [28]: 15.2 nA; electrochemical current [29]: 34.6 nA; electrochemical current [30]: 53.6 nA; electrochemical current [31]: 1.41 nA; CG CR (%) [32]: 0.96%; LH CR (%) [33]: 3.76%; CG CR (%) [34]: 0.78%; FSH CR (%) [35]: 0.65%; LH CR (%) [36]: 10.1%; FSH CR (%) [37]: 2.43%
AbCAM ME-130 mouse monoclonal antibody	45	70	54	0.04	0.77	0.99	0.82	0.88	1	0.82	electrochemical current [38]: 50.5 nA; electrochemical current [39]: 54.7 nA; electrochemical current [40]: -0.1 nA; electrochemical current [41]: 10.8 nA; CG CR (%) [42]: 11.8%; LH CR (%) [43]: 11.1%; FSH CR (%) [44]: 3.9%
Fitzgerald 10C-CR2151M4 mouse monoclonal antibody	554	210	300	0.18	1	0.9	0.94	0.74	0.76	0.98	electrochemical current [45]: 20.7 nA; electrochemical current [46]: 22.5 nA; electrochemical current [47]: 39.9 nA; electrochemical current [48]: 0 nA
